The target in test [1] is T1, Human ANGPTL4(26-406)-FLAG-His6-Avi (human, UniProt Q9BY76 24-406, biotin on the C-terminal Avi tag (BirA) where the protein is immobilised).
T1 construct: the text calls it 20 amino acids), then QP, ANGPTL4 26-406 and FLAG-His6-Avi; the signal peptide is left out here; also called full length human ANGPTL4; hANGPTL4
T1 sequence: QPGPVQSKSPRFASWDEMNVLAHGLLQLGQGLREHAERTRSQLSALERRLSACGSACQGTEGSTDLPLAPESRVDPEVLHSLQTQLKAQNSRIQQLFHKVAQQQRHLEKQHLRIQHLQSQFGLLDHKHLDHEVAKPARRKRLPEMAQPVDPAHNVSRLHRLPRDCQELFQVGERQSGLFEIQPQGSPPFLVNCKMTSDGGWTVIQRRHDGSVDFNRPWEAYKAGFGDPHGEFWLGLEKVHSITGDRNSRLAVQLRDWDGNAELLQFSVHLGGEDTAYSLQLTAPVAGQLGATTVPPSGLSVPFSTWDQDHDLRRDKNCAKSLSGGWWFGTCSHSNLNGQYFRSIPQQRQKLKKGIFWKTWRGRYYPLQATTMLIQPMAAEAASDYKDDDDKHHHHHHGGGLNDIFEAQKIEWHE
Briefly: Octet (ForteBio) kinetics; average KD of the runs. Background: Biolayer interferometry detects binding as a change in optical thickness at a sensor tip.

Test [2] concerns the target T2, Human ANGPTL4(26-161)-FLAG-His6-Avi (human, biotin on the C-terminal Avi tag (BirA) where the protein is immobilised).
T2 construct: also called human ANGPTL4 N-terminal coiled coil domain; hANGPTL4-CCD
T2 chain: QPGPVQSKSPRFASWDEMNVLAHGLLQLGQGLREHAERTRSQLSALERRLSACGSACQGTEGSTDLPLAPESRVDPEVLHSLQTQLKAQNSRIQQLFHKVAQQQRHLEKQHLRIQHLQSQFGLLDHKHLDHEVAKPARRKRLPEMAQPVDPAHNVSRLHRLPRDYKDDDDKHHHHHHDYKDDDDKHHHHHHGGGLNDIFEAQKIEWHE
The test is described as follows: Octet (ForteBio) kinetics; average KD of the runs.

The target of test [3] is T3, Cynomolgus monkey ANGPTL4(26-406)-FLAG-His6-Avi (cynomolgus monkey, biotin on the C-terminal Avi tag (BirA) where the protein is immobilised).
T3 construct: also called Cyno ANGPTL4 (26-406)
T3 chain: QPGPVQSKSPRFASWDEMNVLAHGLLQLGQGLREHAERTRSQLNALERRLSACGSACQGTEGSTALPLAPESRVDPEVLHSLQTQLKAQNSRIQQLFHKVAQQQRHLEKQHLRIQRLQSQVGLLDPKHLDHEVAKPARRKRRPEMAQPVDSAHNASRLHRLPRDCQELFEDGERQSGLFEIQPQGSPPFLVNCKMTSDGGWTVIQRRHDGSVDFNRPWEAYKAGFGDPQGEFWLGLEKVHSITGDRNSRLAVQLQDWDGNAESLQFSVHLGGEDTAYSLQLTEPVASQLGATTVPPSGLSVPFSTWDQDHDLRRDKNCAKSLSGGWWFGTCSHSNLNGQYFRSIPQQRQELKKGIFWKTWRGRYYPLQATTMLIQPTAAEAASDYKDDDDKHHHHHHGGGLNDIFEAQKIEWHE
The test is described as follows: Octet (ForteBio) kinetics; average KD of the runs.

Test [4] deals with T4, Cynomolgus monkey ANGPTL4(26-161)-FLAG-His6-Avi (cynomolgus monkey, biotin on the C-terminal Avi tag (BirA) where the protein is immobilised).
T4 construct: also called Cyno ANGPTL4 (26-161)
T4 chain: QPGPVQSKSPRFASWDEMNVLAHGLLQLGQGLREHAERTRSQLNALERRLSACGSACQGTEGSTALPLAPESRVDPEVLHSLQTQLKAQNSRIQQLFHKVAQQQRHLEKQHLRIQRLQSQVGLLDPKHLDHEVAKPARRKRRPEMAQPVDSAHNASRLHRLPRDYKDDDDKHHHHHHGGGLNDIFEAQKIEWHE
Briefly: Octet (ForteBio) kinetics; average KD of the runs.

In test [5] the target is T5, Human ANGPTL3(17-460)-FLAG-His-Avi (human, UniProt Q9Y5C1 17-460, biotin on the C-terminal Avi tag (BirA)).
T5 construct: also called full length human ANGPTL3; hANGPTL3
T5 sequence: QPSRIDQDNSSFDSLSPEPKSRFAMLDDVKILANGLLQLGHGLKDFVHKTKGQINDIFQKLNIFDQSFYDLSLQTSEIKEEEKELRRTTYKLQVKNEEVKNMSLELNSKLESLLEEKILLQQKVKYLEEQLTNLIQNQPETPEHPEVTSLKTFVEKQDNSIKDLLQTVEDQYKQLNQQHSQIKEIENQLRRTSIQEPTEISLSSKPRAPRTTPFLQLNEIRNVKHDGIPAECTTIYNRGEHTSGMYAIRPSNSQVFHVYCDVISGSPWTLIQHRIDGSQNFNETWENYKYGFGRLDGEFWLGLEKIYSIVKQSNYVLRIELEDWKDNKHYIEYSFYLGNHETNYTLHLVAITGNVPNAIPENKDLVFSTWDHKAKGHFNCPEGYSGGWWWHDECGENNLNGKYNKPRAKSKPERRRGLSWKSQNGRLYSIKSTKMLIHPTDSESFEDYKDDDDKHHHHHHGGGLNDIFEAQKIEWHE
Briefly: Octet (ForteBio) kinetics; average KD of the runs; no binding at 25 nM.

For test [6], the target named is T6, Rat ANGPTL4(24-405)-FLAG-His6-Avi (rat, UniProt Q6TMA8 24-405, biotin on the C-terminal Avi tag (BirA) where the protein is immobilised).
T6 sequence: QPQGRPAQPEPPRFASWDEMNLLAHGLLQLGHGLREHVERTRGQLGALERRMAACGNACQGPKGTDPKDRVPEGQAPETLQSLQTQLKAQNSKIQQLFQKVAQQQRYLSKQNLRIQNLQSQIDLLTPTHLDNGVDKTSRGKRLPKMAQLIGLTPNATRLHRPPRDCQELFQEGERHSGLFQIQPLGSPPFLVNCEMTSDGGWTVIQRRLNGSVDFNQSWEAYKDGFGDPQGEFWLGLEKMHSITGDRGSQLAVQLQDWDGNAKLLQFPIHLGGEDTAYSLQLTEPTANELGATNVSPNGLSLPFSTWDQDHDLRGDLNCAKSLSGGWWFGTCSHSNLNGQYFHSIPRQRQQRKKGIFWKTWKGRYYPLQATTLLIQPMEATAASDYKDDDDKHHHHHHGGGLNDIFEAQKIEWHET
The test is described as follows: Octet (ForteBio) kinetics; average KD of the runs; Octet kinetics; average KD of the three rat runs.

B1: NEG276-LALA (antibody, human IgG1, kappa, L234A L235A)
heavy: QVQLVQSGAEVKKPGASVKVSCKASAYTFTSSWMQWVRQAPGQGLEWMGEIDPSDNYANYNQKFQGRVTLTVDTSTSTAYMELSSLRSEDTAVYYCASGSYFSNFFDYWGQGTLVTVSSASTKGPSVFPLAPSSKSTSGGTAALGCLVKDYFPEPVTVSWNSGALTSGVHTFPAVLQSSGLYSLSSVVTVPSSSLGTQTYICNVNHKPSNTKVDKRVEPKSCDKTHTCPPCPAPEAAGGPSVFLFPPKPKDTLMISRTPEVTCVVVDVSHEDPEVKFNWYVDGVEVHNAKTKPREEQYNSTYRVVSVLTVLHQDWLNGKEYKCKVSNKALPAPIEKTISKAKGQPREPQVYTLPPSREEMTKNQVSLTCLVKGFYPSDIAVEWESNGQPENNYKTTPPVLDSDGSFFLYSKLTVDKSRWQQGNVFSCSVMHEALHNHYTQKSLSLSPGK
light: EIVMTQSPATLSVSPGERATLSCKASQDIGSNLNWLQQKPGQAPRRLIYAVSNRGPGIPARFSGSRSGSEYTLTISSLQSEDFAVYYCLQYASSPWTFGQGTKVEIKRTVAAPSVFIFPPSDEQLKSGTASVVCLLNNFYPREAKVQWKVDNALQSGNSQESVTEQDSKDSTYSLSSTLTLSKADYEKHKVYACEVTHQGLSSPVTKSFNRGEC
For B1, the dissociation constant (Kd) in test [1] was 0.013 nM; in test [2] it was 0.038 nM; in test [3], 0.015 nM; in test [4], 0.056 nM; in test [5], greater than 6 nM; in test [6] it was 6.34 nM.

Broadly, the Kd is a measure of binding affinity in units of concentration.
